Experiment: label from the status in PepcDB records

| Sequence | protein production |
| --- | --- |
| GTGTQPTIVIGGFVPDATEAVEFQRELFRRHGSVYYLNYARHGFSVEMFFAQLADLVEDLNRRGEKPVIFAISFGCSLLSRFLRERYSGEGLTVGGIVMTSP | failed |
| GVLILHGFTANLESVRALFGPLGRFDLKMATPLLRGHGAASPDELRGVTWREWLDDAENAFETLTGTGGKAVVIGHSMGALLALQLAARRPELVDSVILATPPVRLTSPLGPGRPLHFLAPLVSHVVDRWDMEARFADPGSAIIPKQYDWAPTKTILSMFELLEETMRITGRVRVPALILQARHESVVLPESAEILTRAIATPPEAKSIVWFDKTDHQIFCDCERKAAVDAVVSFVSKRFP | failed |
| HGILIRSSAFLEELADLTSLVVDKTGTLTHGSLRLQALRLADAAEEASVLRLAASLGAASSHPVSRALAALAAHDAYHPLSDIRERQGFGVVARTAAGEAALGRPELFQQLGIDASEVPEHEGPIAGIALDGRFLGWLLLADSVRAEAAEALADLRELGLGRQLLLTGDRRAVADAVAKQVGIRQLVAQALPEDKLRQVGAEIGSGFRPMVVGDGINDSLALKAGVVGVAMGAGGADIALASADIVLIGSDLRRLGTCVRLSR | failed |
| HSGEDLPMVAPGNVRVNVVNSTLAEVHWDPVPLKSIRGHLQGYRIYYWKTQSSSKRNRRHIEKKILTFQGSKTHGMLPGLEPFSHYTLNVRVVNGKGEGPASPDRVFNTPEG | not failed |
| HVLYSNILNRDVTISIYLPESYNQLVKYNVILCFDGLDFLRFGRIQRTYESLIKEARIDDAIIVGFHYEDVDKRREEFHPQGSRSHLTIQSVGKEILPFIDSTFSTLKVGNARLLVGDSLAGSIALLTALTYPTIFSRVAMLSPHSDDKVLDKLNQCANKEQLTIWHVIGLDEKDFTLPTNGKRADFLTPNRELAEQIKKYNITYYYDEFEGGHQWKDWKPLLSDILLYFLRKNTDDQHYE | failed |
| HVQLSLPVLQVRDVLVRGFGDSVEEALSEAREHLKNGTCGLVELEKGVLPQLEQPYVFIKRSDALSTNHGHKVVELVAEMDGIQYGRSGITLGVLVPHVGETPIAYRNVLLRKNG | not failed |
| IAGPGLGSGVRARVLQSFTVDSSKAGLAPLEVRVLGPRGLVEPVNMVDNGDGTHTVTYTPSQEGPYMVSVKYADEEIPRSPFKVKVLPTYDASKVTASGPGLSSYGVPASLPVDFAIDARDAGEGLLAVQITDQEGKPKRAIVHDNKDGTYAVTYIPDKTGRYMIGVTYGGDDIPLSPYRIRATQTGDASKCLATGPGIASTVKTGEEVGFVVDAKTAGKGKVTCTVLTPDGTEAEADVIENEDGTYDIFYTAAKPGTYVIYVRFGGVDIPNSPFTVMATDGEVTAVEEAPVNACPPGFRPWVTEEAYVPVSDMNGLGFKPFDLVIPFAVRKGEITGEVHMPSGKTATPEIVDNKDGTVTVRYAPTEVGLHEMHIKYMGSHIPESPLQFYVNYPNSGSVSAYGPGLVYGVANKTATFTIVTEDAGEGGLDLAIEGPSKAEISCIDNKDGTCTVTYLPTLPGDYSILVKYNDKHIPGSPFTAKITDDSRRCSQVKLGSAADFLLDISETDLSSLTASIKAPSGRDEPCLLKRLPNNHIGISFIPREVGEHLVSIKKNGNHVANSPVSIMVVQSEIGDARRAKVYGRGLSEGRTFEMSDFIVDTRDAGYGGISLAVEGPSKVDIQTEDLEDGTCKVSYFPTVPGVYIVSTKFADEHVPGSPFTVKISGEGRVKESITRTSRAPSVATVGSICDLNLKIPEINSSDMSAHVTSPSGRVTEAEIVPMGKNSHCVRFVPQEMGVHTVSVKYRGQHVTGSPFQFTVGPLGEGGAHKVRAGGPGLERGEAGVPAEFSIWTREAGAGGLSIAVEGPSKAEITFDDHKNGSCGVSYIAQEPGNYEVSIKFNDEHIPESPYLVPVIAPSDDARRLTVMSLQESGLKVNQPASFAIRLNGAKGKIDAKVHSPSGAVEECHVSELEPDKYAVRFIPHENGVHTIDVKFNGSHVVGSPFKVRVGEPGQAGNPALVSAYGTGLEGGTTGIQSEFFINTTRAGPGTLSVTIEGPSKVKMDCQETPEGYKVMYTPMAPGNYLISVKYGGPNHIVGSPFKAKVTGQRLVSPGSANETSSILVESVTRSSTETCYSAIPKASSDASKVTSKGAGLSKAFVGQKSSFLVDCSKAGSNMLLIGVHGPTTPCEEVSMKHVGNQQYNVTYVVKERGDYVLAVKWGEEHIPGSPFHVTVP | failed |
| IDGIFIMDAEGHYLDVNPAICSAIGYTRDEFLALDWGVLSRGVDSGWAAASLARIVGGEPLREERTVWTRNGDQLTVELSAHLLPD | failed |
| IGGHVGYGVAKSYRGKGYATILLEKALDELKTLNVEVVLMTCNPLNFASQTVMKKCGGYQIESYIKKNGKPVHRYHIPNT | failed |
| IGPPESWPQALKTAVRIMLTSQQPIWIGWGTELTYLYNDPYKSIIGGKHPWALGRPTSEVWSEIWEDIAPLLAKATSGHEGTYVEAQLLIMERNGFPEETYYTFSYSPIPTDDGSPGGIFCANTDDTQRVITERQLSLLRDLAASAAESRS | failed |
| IKERVKMEVIGLEIPLISGNEDYTLAELISTYPLEDKDVIVIAETVVSKIEKNVILKNEITPSNEAMELSKKLGKEPEVVQVILDESNEIVKLGPNFIITETKHGFVCANSGVDESNTSKGIKPLPKNPDKSAEEIRMGIEKITGKKVGVIINDSMGRPFRKGSCGIAIGVSGVCGLWDRKGEKDLFGRELKTTEVGIADELAATASAVMGQSNEGIPLVIIRNAPVPFTNGTGKELIRKKEEDVFR | failed |
| IKHWVFDMDGTLTIAVHDFAAIREALSIPAEDDILTHLAALPADESAAKHAWLLEHERDLAQGSRPAPGAVELVRELAGRGYRLGILTRNARELAHVTLEAIGLADCFAEADVLGRDEAPPKPHPGGLLKLAEAWDVSPSRMVMVGDYRFDLDCGRAAGTRTVLVNLPDNPWPELTDWHARDCAQLRDLLSA | failed |
| IKILKNFDEAIIVDAASLDPESLYQRTYAGKMTFGRVSDLGQFIRESEPEPDVRKSKGSMFSQAMKKWVQGNTDEAQEELAWKIAKMIVSDIMQQAQYDQPLEKSTKL | failed |
| IKMAKDYGFCFGVKRAIQIAEKNQNSLIFGSLIHNAKEINRLEKNFNVKIEEDPKKIPKNKSVIIRTHGIPKQDLEYLKNKGVKITDATCPYVIKPQQIVESMSKEGYQIVLFGDINHPEVKGVISYATNQALVVNSLEELQEKKLQRKVALVSQTTKQTPKLLQIASYLVERCTEVRIFNTICNATSYNQKAALDLSKEVDIMIVVGGKTSSNTKQLLSIAKQHCKDSYLVEDENELELAWFKDKKLCGITAGASTPDWIIENVKQKISTI | failed |
| IKTRGRNLYSYEGKIGKAVDDIKSGQEGYVIVEGEYWRALALEDIKKNEDIVVVKREGMKLMVRKKVSDIETSRV | failed |
| ILELIAKGKPASKIYAEIALMYEERHSGLRCSMLELKGGKLLHAGAPSLPKSYCKAVHGLEYGPQVGSCGTSTYTGKRVLVENIATDPKWADLKYVALPYGMRSCWSEPIKSSSGKVLGAFGMYHDYPALPNEQESNDLTSAARLAGIVMEREQNQKRIQ | failed |
| ILGWVEFTRLEPWGIKTPARIDTGANTSSMSARDINVFKRNGKTWVRFTFDFKKGTAERSIEIERPLVRMVKIKQHDGPSQERPVISMEICLADEIREAEFDLIDRRALNYPVLLGRKALAGYVVVDPARAYLTKAVCGHTKKKKKGSEPADPGQQHE | failed |

| Sequence | protein production |
| --- | --- |
| ILKEYSKLLSFNAQKYYLVGAEKEDLVQEGILGLLKAIKFYDETKSSFSSFAFLCIRREMISAIRKANTQKHMVLNEALKTNAILEDSAYFDDEGHNINNYKSSESNPEEAYLLKEEIEEFKKFSENNFSKFEKEVLTYLIRGYSYREIATILSKNLKSIDNTIQRIRKKSEEWIK | failed |
| ILTTENQGVFTITLNRIDKKNALTNDMYKQLCQYFAYAEQTSSIHCVVIQGNEQCFCAGNDLHDFIQCSADDELAALAFVKVLSEFTKPLVAGVAGVAVGIGTTLLLHCDMVIAANNSKFKLPFTQLGLCPEAGSSLLLTQKVGPNKAFELMVLGQTFNAEQALSYGITNQTCQPDELLALTSDVAQAISNLPVESVMTSRRLIRQANKLALSQVISEESQAFSHLVKSEECKNILAKFFK | failed |
| INDKLLVQTIKKALFGLRYQRAKKDIQEKDTMISVVADNSPAGICLFGDNGIIYANKALETITGYSKSELIGGSLLDIIQSDSKRLSERINLSLDSACNLEKYSEIRIKTKTGKIRYIDLIANSVEFKEGYVCIANMIDV | failed |
| INKLYAINANLEESELRFRSAFNSAAIGMAIVSLEGMWLKVNQSLCQIVGYSEEELLETNFQSITHPEDLELDLGYVRQLLEGDIRFYHMEKRYIHKNGSVIWILLSASLIRDLDNKPLYFISQIQNID | failed |
| INQQEDSSESCWNCGRKASETCSGCNTARYCGSFCQHKDWEKHHHIC | not failed |
| IPGSPFTAKITDDSRRCSQVKLGSAADFLLDISETDLSSLTASIKAPSGRDEPCLLKRLPNNHIGISFIPREVGEHLVSIKKNGNHVANSPVSIMVVQSEIGD | not failed |
| IPSDGLTIPYGSGPKPIFRAQVGKKVYQSLINQATESVYITTPYLIIDYDLTETIKNAAMRGVDVRIITPYIPDKKFIQLVTRGAYPDLLSAGVRIYEYSPGFIHSKQMLVDEDFAVVGTINLDYRSLVHHYENAVLLYKTPSIREIARDFRNIFADSQEVYPHSIKTSWYQKLVKEIAQLFAPIL | failed |
| IQVFVKNPDGGSYAYAINPNSFILGLKQQIEDQQGLPKKQQQLEFQGQVLQDWLGLGIYGIQDSDTLILSKKKG | not failed |
| IRRKINANVYDKVVLYAPTWRGIHGKATLDIEKLKNDLEKLADQDCHIVFRGHHMIEKLVSEQNISGITIVPSEIDTNELLGAIDILITDYSSIAFDFFVMNRPVIYYAYDIEQYNNERGLYFPLNELPGTVCFNDVELLNTLSGYLRNEIYFDASKGIDKFCKNDDGSVCGKVIEWFFF | failed |
| IRSIWENNGFGLMSSKTMTDFDYWISDFEKIGASQKEAEQLIVKAIEIAIDANARNYNYINAILKDWEQRGFKSVEEREA | not failed |
| IRYAIERQRVEEALRHSEERFRVALKNSPIFVFNQDRDLRYTWIYNPIAGWTVEEMLGKQDSEIMSEQDAQCLTAIKYHVLTTGIGTRQVVSIGTPLGTKYYDLTVEPLRNESQDIVGITCACIDISERKLAEAKIREQ | not failed |
| ITERKQIEEALQKSGQRLRMTLESTSTNWWERDLITDQADWSEQSDHLLGYTPDSYEKNQDTFYKLVHPDDREHVQAGVNLAIATGEPYQGEFRLVQADGNCIWILGTGHVEYNEAGQPVRMSGLNIN | failed |
| IYGYVEKATLIDQNLTLSAKLDTGAKSASLHAVNITEIEKKGIPYLRFTVPTKTGDYSFEGEYVGKVKIKVRSSETNPGLLRTTPIKRPVVLLNIKLGDKVRTIKVNLTNRKRFLYPLLLGRDAIIDFNGAVDPALTFTTKSK | not failed |
| KAFLEDMKKYAETFLEPWFKAPNKGTFQIVYKSRNNSHVNREEVIRELAGIVCTLNSENKVDLTNPQYTVVVEIIKAVCCLSVVK | not failed |
| KCETKEKGAITAKELYTMMTDKNISLIIMDARRMQDYQDSCILHSLSVPEEAISPGVTASWIEAHLPDDSKDTWKKRGNVEYVVLLDWFSSAKDLQIGTTLRSLKDALFKWESKTVLRNEPLVLEGGYENWLLCYPQYTTNAKV | not failed |
| KDFLAMFSPKCGGCNRPVLENYLSAMDTVWHPECFVCGDCFTSFSTGSFFELDGRPFCELHYHHRRG | not failed |
| KFAYKVGIGLEVPFANTNIWSFQTGLNFISKGVKGDGVTDAWDVVDVTINQLYLELPLMVGARIHTASNFDLLFKGGPYLAYGVGGKTKIDGVSEKADTFGDDGLKRFDAGLGLGVAFEFGNIVVGVETGTSFTKVASGVSAHNLSALATIGYKF | failed |
